Laboratory results reported in publication PMC2651629, “Structure of the Archaeal Pab87 Peptidase Reveals a Novel Self-Compartmentalizing Protease Family” (PLoS ONE, 2009).

What was measured:
[1] = biological target: Pyrococcus abyssi Pab87 protein (Pyrococcus abyssi); test: AUC; sedimentation velocity, 20°C, 40,000 rpm, 10 µM protein in 150 mM Tris pH 8.5, 350 mM NaCl; c(s) and c(M) distributions (Sedfit)
[2] = biological target: Pyrococcus abyssi Pab87 protein (Pyrococcus abyssi); test: cryo-EM structure; 0.5 mg/mL Pab87 in 50 mM Tris-HCl pH 8.5, 350 mM NaCl; single-particle reconstruction at around 14 Å, fitted with the X-ray structure
[3] = biological target: Pyrococcus abyssi Pab87 protein (Pyrococcus abyssi); test: crystal structure; Pab87 co-crystallised with Lu-HPDO3A (200 mM), 20 mM CaCl2, 30% MPD, 100 mM sodium acetate pH 4.6, 18°C; space group P1, eight molecules per asymmetric unit; 2.2 Å

Measured: stoichiometry N

Pyrococcus abyssi Pab87 protein (enzyme)
8: all assays above
